# Values quoted from earlier work, collected in publication PMC11346406.
# pKd: −log10 of the molar value.
# Molecular target: TDP-43 PLD (Homo sapiens) (UniProt Q13148)
# Assay: NMR
# Sequence of TDP-43 RRM1-RRM2 (Q13148 102-269): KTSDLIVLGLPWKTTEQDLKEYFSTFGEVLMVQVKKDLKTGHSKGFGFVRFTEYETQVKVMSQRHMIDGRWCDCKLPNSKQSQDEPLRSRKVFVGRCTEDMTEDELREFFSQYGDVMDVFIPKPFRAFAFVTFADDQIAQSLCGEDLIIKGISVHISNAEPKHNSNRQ
# Sequence of TDP-43 PLD (Homo sapiens) (Q13148 274-414): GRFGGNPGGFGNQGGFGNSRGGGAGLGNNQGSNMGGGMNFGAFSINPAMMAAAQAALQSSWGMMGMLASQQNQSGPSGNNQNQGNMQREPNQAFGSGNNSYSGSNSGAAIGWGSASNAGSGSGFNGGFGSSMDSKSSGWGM
substance,measurement,value
TDP-43 RRM1-RRM2 (from UniProt Q13148),pKd,5.30
